Measured values from publication PMC13225215, “Kinetic properties of optogenetic site-specific DNA recombination by LiCre-loxP”.

B1: half loxP (1Y70/1Y71) (dsDNA)
DNA 1: CGGAATTCAGATCTATAACTTCGTATAATGTGTCTAGAGGATCCGC
DNA 2: GCGGATCCTCTAGACACATTATACGAAGTTATAGATCTGAATTCCG

Key:
[1] = molecular target: LiCre (asLOV2-Cre chimera) (synthetic chimera (Avena sativa LOV2?)) (UniProt P06956); experiment: SPR; conditions: SPR (Biacore T200, SA chip): 20 mM Tris pH 7.4, 50 mM KCl, 150 mM NaCl, 10 mM MgCl2, 1 mM DTT, 0.05% P20; 25 C; 0.3125-10 nM protein; no blue light
Cre recombinase = Cre recombinase (UniProt P06956 1-343); experiment: SPR; KD1, first unit; global kinetic fit of half and full site data; 10 mM Mg2+; no blue light; SPR (Biacore T200, SA chip): 20 mM Tris pH 7.4, 50 mM KCl, 150 mM NaCl, 10 mM MgCl2, 1 mM DTT, 0.05% P20; 25 C; 0.3125-10 nM protein; no blue light; conditions: protein: recombinant; tags: N-terminal 6xHis; chain copies: 2; label: 5'-biotin on 1Y70; blunt

| Molecule | Kd [1] [pM] | Kd (Cre recombinase) [pM] |
| --- | --- | --- |
| CGGAATTCACAACTTCGTATAATGTATGCTATACGAAGTTATGGATCCGC (double strand) [full loxP (1Y68/1Y69)] | 6.1 |  |
| CGGAATTCAGATCTATAACTTCGTATAATGTGTCTAGAGGATCCGC (double strand) [half loxP (1Y70/1Y71)] | 490 |  |
| B1 |  | 1150 |
